Molecular target: nrl_human NRL (UniProt P54845)
Sequence (P54845 whole entry): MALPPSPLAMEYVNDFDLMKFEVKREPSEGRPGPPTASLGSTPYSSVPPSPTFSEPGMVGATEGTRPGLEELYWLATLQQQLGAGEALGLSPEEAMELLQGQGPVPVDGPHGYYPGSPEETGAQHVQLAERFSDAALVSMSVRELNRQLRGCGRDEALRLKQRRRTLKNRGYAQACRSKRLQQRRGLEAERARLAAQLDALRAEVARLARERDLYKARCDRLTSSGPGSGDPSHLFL

Sequence of Cone-rod homeobox protein (Bos taurus (Bovine)), Q9XSK0 R41W (Q9XSK0 whole entry R41W): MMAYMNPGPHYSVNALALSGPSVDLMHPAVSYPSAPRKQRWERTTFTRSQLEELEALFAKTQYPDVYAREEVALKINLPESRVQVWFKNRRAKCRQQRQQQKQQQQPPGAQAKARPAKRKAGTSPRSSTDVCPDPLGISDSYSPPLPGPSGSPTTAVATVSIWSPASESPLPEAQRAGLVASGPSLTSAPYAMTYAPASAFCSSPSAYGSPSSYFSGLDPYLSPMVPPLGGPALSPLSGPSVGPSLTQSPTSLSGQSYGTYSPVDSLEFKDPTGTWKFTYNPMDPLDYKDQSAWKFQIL
Sequence of Cone-rod homeobox protein (Bos taurus (Bovine)), Q9XSK0 R90W (Q9XSK0 whole entry R90W): as the sequence (Q9XSK0 whole entry R41W) above, with W41R, R90W counted along it

effect of a mutation on the interaction | Substance
decreasing interaction | Cone-rod homeobox protein (Bos taurus (Bovine)), Q9XSK0 R41W
decreasing interaction | Cone-rod homeobox protein (Bos taurus (Bovine)), Q9XSK0 R90W

— IntAct's records for PubMed 10887186
